The star is where a group is joined. Farnesyl = CC(C)=CCC/C(C)=C/CC/C(C)=C/C*; FAM = fluorescein label
Molecular target: T1, K-Ras4B C-terminal peptide (Homo sapiens, also: FAM-labelled)
T1 chain: {FAM}-KKKKKKSKTKC(Farnesyl)-OMe
Assay: fluorescence polarization

Kd: 150 nM
B1: PDE6D (protein)
chain: MSAKDERAREILRGFKLNWMNLRDAETGKILWQGTEDLSVPGVEHEARVPKKILKCKAVSRELNFSSTEQMEKFRLEQKVYFKGQCLEEWFFEFGFVIPNSTNTWQSLIEAAPESQMMPASVLTGNVIIETKFFDDDLLVSTSRVRLFYV

— publication PMC12703448 (2025)
